This experiment has as its target human corticotropin-releasing factor 2α (CRF2 α receptor) (human), Q13324. The experiment in a line: cell-based or functional assay.

Starred links: 1 amine or outer side, 2 acyl side, 3 side chain; linkers in the order of their positions; H or OH if unused. Non-standard residues stand in square brackets, D forms with d. Groups on a side chain read outwards from the residue. No end group written: not given here. *: point of attachment. C18 diacid = O=C(O)CCCCCCCCCCCCCCCCC(=O)*; γGlu = O=C(O)[C@H](CCC(=O)[*:2])N[*:1]; AEEA = NCCOCCOCC(=O)O; Aib = CC(C)(N)C(=O)O

human corticotropin-releasing factor 2α (CRF2 α receptor) (human), Q13324, sequence (Q13324 20-411): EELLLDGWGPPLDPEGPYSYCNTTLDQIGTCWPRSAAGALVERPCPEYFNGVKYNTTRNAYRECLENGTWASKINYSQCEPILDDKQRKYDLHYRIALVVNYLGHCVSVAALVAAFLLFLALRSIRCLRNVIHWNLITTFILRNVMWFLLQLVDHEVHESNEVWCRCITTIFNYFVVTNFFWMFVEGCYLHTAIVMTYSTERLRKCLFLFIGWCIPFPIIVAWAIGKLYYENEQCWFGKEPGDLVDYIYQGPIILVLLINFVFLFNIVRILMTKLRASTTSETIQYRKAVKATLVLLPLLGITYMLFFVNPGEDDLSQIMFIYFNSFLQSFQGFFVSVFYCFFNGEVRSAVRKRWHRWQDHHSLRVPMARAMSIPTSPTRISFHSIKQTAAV

B1: SEQ ID NO: 133 (peptide)
peptide: IVLSLD[dV]PIKLK([AEEA-AEEA-γGlu-C18 diacid])QILLKQERQK[Aib]QREQAEKNKQILERV-NH2
modifications: N-terminus assumed
SMILES: CC[C@H](C)[C@H](N)C(=O)N[C@H](C(=O)N[C@@H](CC(C)C)C(=O)N[C@@H](CO)C(=O)N[C@@H](CC(C)C)C(=O)N[C@@H](CC(=O)O)C(=O)N[C@@H](C(=O)N1CCC[C@H]1C(=O)N[C@H](C(=O)N[C@@H](CCCCN)C(=O)N[C@@H](CC(C)C)C(=O)N[C@@H](CCCCNC(=O)COCCOCCNC(=O)COCCOCCNC(=O)CC[C@H](NC(=O)CCCCCCCCCCCCCCCCC(=O)O)C(=O)O)C(=O)N[C@@H](CCC(N)=O)C(=O)N[C@H](C(=O)N[C@@H](CC(C)C)C(=O)N[C@@H](CC(C)C)C(=O)N[C@@H](CCCCN)C(=O)N[C@@H](CCC(N)=O)C(=O)N[C@@H](CCC(=O)O)C(=O)N[C@@H](CCCNC(=N)N)C(=O)N[C@@H](CCC(N)=O)C(=O)N[C@@H](CCCCN)C(=O)NC(C)(C)C(=O)N[C@@H](CCC(N)=O)C(=O)N[C@@H](CCCNC(=N)N)C(=O)N[C@@H](CCC(=O)O)C(=O)N[C@@H](CCC(N)=O)C(=O)N[C@@H](C)C(=O)N[C@@H](CCC(=O)O)C(=O)N[C@@H](CCCCN)C(=O)N[C@@H](CC(N)=O)C(=O)N[C@@H](CCCCN)C(=O)N[C@@H](CCC(N)=O)C(=O)N[C@H](C(=O)N[C@@H](CC(C)C)C(=O)N[C@@H](CCC(=O)O)C(=O)N[C@@H](CCCNC(=N)N)C(=O)N[C@H](C(N)=O)C(C)C)[C@@H](C)CC)[C@@H](C)CC)[C@@H](C)CC)C(C)C)C(C)C
B1 yielded an EC50 [nM], 0% HSA of 0.09 nM and an EC50 [nM], 0.1% HSA of 3.19 nM.

B2: SEQ ID NO: 135 (peptide)
peptide: IVLSLD[dV]PIKLK([AEEA-AEEA-γGlu-C18 diacid])QILLKQERQK[Aib]QRQQAEKNKQILAQV-NH2
modifications: N-terminus assumed
SMILES: CC[C@H](C)[C@H](N)C(=O)N[C@H](C(=O)N[C@@H](CC(C)C)C(=O)N[C@@H](CO)C(=O)N[C@@H](CC(C)C)C(=O)N[C@@H](CC(=O)O)C(=O)N[C@@H](C(=O)N1CCC[C@H]1C(=O)N[C@H](C(=O)N[C@@H](CCCCN)C(=O)N[C@@H](CC(C)C)C(=O)N[C@@H](CCCCNC(=O)COCCOCCNC(=O)COCCOCCNC(=O)CC[C@H](NC(=O)CCCCCCCCCCCCCCCCC(=O)O)C(=O)O)C(=O)N[C@@H](CCC(N)=O)C(=O)N[C@H](C(=O)N[C@@H](CC(C)C)C(=O)N[C@@H](CC(C)C)C(=O)N[C@@H](CCCCN)C(=O)N[C@@H](CCC(N)=O)C(=O)N[C@@H](CCC(=O)O)C(=O)N[C@@H](CCCNC(=N)N)C(=O)N[C@@H](CCC(N)=O)C(=O)N[C@@H](CCCCN)C(=O)NC(C)(C)C(=O)N[C@@H](CCC(N)=O)C(=O)N[C@@H](CCCNC(=N)N)C(=O)N[C@@H](CCC(N)=O)C(=O)N[C@@H](CCC(N)=O)C(=O)N[C@@H](C)C(=O)N[C@@H](CCC(=O)O)C(=O)N[C@@H](CCCCN)C(=O)N[C@@H](CC(N)=O)C(=O)N[C@@H](CCCCN)C(=O)N[C@@H](CCC(N)=O)C(=O)N[C@H](C(=O)N[C@@H](CC(C)C)C(=O)N[C@@H](C)C(=O)N[C@@H](CCC(N)=O)C(=O)N[C@H](C(N)=O)C(C)C)[C@@H](C)CC)[C@@H](C)CC)[C@@H](C)CC)C(C)C)C(C)C
On to B2, for which the EC50 [nM], 0% HSA was found to be 0.04 nM and the EC50 [nM], 0.1% HSA is 1.48 nM.

B3: SEQ ID NO: 132 (peptide)
peptide: IVLSLD[dV]PIKLK([AEEA-AEEA-γGlu-C18 diacid])QILLEQERQK[Aib]QREQAEKNKQILERV-NH2
modifications: N-terminus assumed
SMILES: CC[C@H](C)[C@H](N)C(=O)N[C@H](C(=O)N[C@@H](CC(C)C)C(=O)N[C@@H](CO)C(=O)N[C@@H](CC(C)C)C(=O)N[C@@H](CC(=O)O)C(=O)N[C@@H](C(=O)N1CCC[C@H]1C(=O)N[C@H](C(=O)N[C@@H](CCCCN)C(=O)N[C@@H](CC(C)C)C(=O)N[C@@H](CCCCNC(=O)COCCOCCNC(=O)COCCOCCNC(=O)CC[C@H](NC(=O)CCCCCCCCCCCCCCCCC(=O)O)C(=O)O)C(=O)N[C@@H](CCC(N)=O)C(=O)N[C@H](C(=O)N[C@@H](CC(C)C)C(=O)N[C@@H](CC(C)C)C(=O)N[C@@H](CCC(=O)O)C(=O)N[C@@H](CCC(N)=O)C(=O)N[C@@H](CCC(=O)O)C(=O)N[C@@H](CCCNC(=N)N)C(=O)N[C@@H](CCC(N)=O)C(=O)N[C@@H](CCCCN)C(=O)NC(C)(C)C(=O)N[C@@H](CCC(N)=O)C(=O)N[C@@H](CCCNC(=N)N)C(=O)N[C@@H](CCC(=O)O)C(=O)N[C@@H](CCC(N)=O)C(=O)N[C@@H](C)C(=O)N[C@@H](CCC(=O)O)C(=O)N[C@@H](CCCCN)C(=O)N[C@@H](CC(N)=O)C(=O)N[C@@H](CCCCN)C(=O)N[C@@H](CCC(N)=O)C(=O)N[C@H](C(=O)N[C@@H](CC(C)C)C(=O)N[C@@H](CCC(=O)O)C(=O)N[C@@H](CCCNC(=N)N)C(=O)N[C@H](C(N)=O)C(C)C)[C@@H](C)CC)[C@@H](C)CC)[C@@H](C)CC)C(C)C)C(C)C
In the case of B3, the EC50 [nM], 0% HSA amounted to 0.38 nM and the EC50 [nM], 0.1% HSA is 8.76 nM.

B4: SEQ ID NO: 134 (peptide)
peptide: IVLSLD[dV]PIKLK([AEEA-AEEA-γGlu-C18 diacid])QILLKQERQK[Aib]QREKAEKNKQILAQV-NH2
modifications: N-terminus assumed
SMILES: CC[C@H](C)[C@H](N)C(=O)N[C@H](C(=O)N[C@@H](CC(C)C)C(=O)N[C@@H](CO)C(=O)N[C@@H](CC(C)C)C(=O)N[C@@H](CC(=O)O)C(=O)N[C@@H](C(=O)N1CCC[C@H]1C(=O)N[C@H](C(=O)N[C@@H](CCCCN)C(=O)N[C@@H](CC(C)C)C(=O)N[C@@H](CCCCNC(=O)COCCOCCNC(=O)COCCOCCNC(=O)CC[C@H](NC(=O)CCCCCCCCCCCCCCCCC(=O)O)C(=O)O)C(=O)N[C@@H](CCC(N)=O)C(=O)N[C@H](C(=O)N[C@@H](CC(C)C)C(=O)N[C@@H](CC(C)C)C(=O)N[C@@H](CCCCN)C(=O)N[C@@H](CCC(N)=O)C(=O)N[C@@H](CCC(=O)O)C(=O)N[C@@H](CCCNC(=N)N)C(=O)N[C@@H](CCC(N)=O)C(=O)N[C@@H](CCCCN)C(=O)NC(C)(C)C(=O)N[C@@H](CCC(N)=O)C(=O)N[C@@H](CCCNC(=N)N)C(=O)N[C@@H](CCC(=O)O)C(=O)N[C@@H](CCCCN)C(=O)N[C@@H](C)C(=O)N[C@@H](CCC(=O)O)C(=O)N[C@@H](CCCCN)C(=O)N[C@@H](CC(N)=O)C(=O)N[C@@H](CCCCN)C(=O)N[C@@H](CCC(N)=O)C(=O)N[C@H](C(=O)N[C@@H](CC(C)C)C(=O)N[C@@H](C)C(=O)N[C@@H](CCC(N)=O)C(=O)N[C@H](C(N)=O)C(C)C)[C@@H](C)CC)[C@@H](C)CC)[C@@H](C)CC)C(C)C)C(C)C
Molecule B4 had an EC50 [nM], 0% HSA of 0.07 nM and an EC50 [nM], 0.1% HSA of 3.44 nM.

B5: SEQ ID NO: 136 (peptide)
peptide: IVLSLD[dV]PIKLK([AEEA-AEEA-γGlu-C18 diacid])QILLKQERQKK[Aib]RQKAEKNKQILAQV-NH2
modifications: N-terminus assumed
SMILES: CC[C@H](C)[C@H](N)C(=O)N[C@H](C(=O)N[C@@H](CC(C)C)C(=O)N[C@@H](CO)C(=O)N[C@@H](CC(C)C)C(=O)N[C@@H](CC(=O)O)C(=O)N[C@@H](C(=O)N1CCC[C@H]1C(=O)N[C@H](C(=O)N[C@@H](CCCCN)C(=O)N[C@@H](CC(C)C)C(=O)N[C@@H](CCCCNC(=O)COCCOCCNC(=O)COCCOCCNC(=O)CC[C@H](NC(=O)CCCCCCCCCCCCCCCCC(=O)O)C(=O)O)C(=O)N[C@@H](CCC(N)=O)C(=O)N[C@H](C(=O)N[C@@H](CC(C)C)C(=O)N[C@@H](CC(C)C)C(=O)N[C@@H](CCCCN)C(=O)N[C@@H](CCC(N)=O)C(=O)N[C@@H](CCC(=O)O)C(=O)N[C@@H](CCCNC(=N)N)C(=O)N[C@@H](CCC(N)=O)C(=O)N[C@@H](CCCCN)C(=O)N[C@@H](CCCCN)C(=O)NC(C)(C)C(=O)N[C@@H](CCCNC(=N)N)C(=O)N[C@@H](CCC(N)=O)C(=O)N[C@@H](CCCCN)C(=O)N[C@@H](C)C(=O)N[C@@H](CCC(=O)O)C(=O)N[C@@H](CCCCN)C(=O)N[C@@H](CC(N)=O)C(=O)N[C@@H](CCCCN)C(=O)N[C@@H](CCC(N)=O)C(=O)N[C@H](C(=O)N[C@@H](CC(C)C)C(=O)N[C@@H](C)C(=O)N[C@@H](CCC(N)=O)C(=O)N[C@H](C(N)=O)C(C)C)[C@@H](C)CC)[C@@H](C)CC)[C@@H](C)CC)C(C)C)C(C)C
With B5, the EC50 [nM], 0% HSA amounted to 0.05 nM and the EC50 [nM], 0.1% HSA turned out to be 2.41 nM.

B6: SEQ ID NO: 131 (peptide)
peptide: IVLSLD[dV]PIKLK([AEEA-AEEA-γGlu-C18 diacid])QILLEQERQK[Aib]QRQQAEKNKQILAQV-NH2
modifications: N-terminus assumed
SMILES: CC[C@H](C)[C@H](N)C(=O)N[C@H](C(=O)N[C@@H](CC(C)C)C(=O)N[C@@H](CO)C(=O)N[C@@H](CC(C)C)C(=O)N[C@@H](CC(=O)O)C(=O)N[C@@H](C(=O)N1CCC[C@H]1C(=O)N[C@H](C(=O)N[C@@H](CCCCN)C(=O)N[C@@H](CC(C)C)C(=O)N[C@@H](CCCCNC(=O)COCCOCCNC(=O)COCCOCCNC(=O)CC[C@H](NC(=O)CCCCCCCCCCCCCCCCC(=O)O)C(=O)O)C(=O)N[C@@H](CCC(N)=O)C(=O)N[C@H](C(=O)N[C@@H](CC(C)C)C(=O)N[C@@H](CC(C)C)C(=O)N[C@@H](CCC(=O)O)C(=O)N[C@@H](CCC(N)=O)C(=O)N[C@@H](CCC(=O)O)C(=O)N[C@@H](CCCNC(=N)N)C(=O)N[C@@H](CCC(N)=O)C(=O)N[C@@H](CCCCN)C(=O)NC(C)(C)C(=O)N[C@@H](CCC(N)=O)C(=O)N[C@@H](CCCNC(=N)N)C(=O)N[C@@H](CCC(N)=O)C(=O)N[C@@H](CCC(N)=O)C(=O)N[C@@H](C)C(=O)N[C@@H](CCC(=O)O)C(=O)N[C@@H](CCCCN)C(=O)N[C@@H](CC(N)=O)C(=O)N[C@@H](CCCCN)C(=O)N[C@@H](CCC(N)=O)C(=O)N[C@H](C(=O)N[C@@H](CC(C)C)C(=O)N[C@@H](C)C(=O)N[C@@H](CCC(N)=O)C(=O)N[C@H](C(N)=O)C(C)C)[C@@H](C)CC)[C@@H](C)CC)[C@@H](C)CC)C(C)C)C(C)C
In turn, B6 showed an EC50 [nM], 0% HSA of 0.11 nM and an EC50 [nM], 0.1% HSA of 2.44 nM.

For the origin of these results see patent US12679878B2, “CRF2 receptor agonists and their use in therapy” (SANOFI, priority 2020, dated 2026).
